# Experimental data as given in article PMC11417369, “DNA sequence and chromatin differentiate sequence-specific transcription factor binding in the human malaria parasite Plasmodium falciparum”.
# T1: AP2-HC D1 (Plasmodium falciparum, UniProt Q8IKR9 1316-1374)
# T1 sequence: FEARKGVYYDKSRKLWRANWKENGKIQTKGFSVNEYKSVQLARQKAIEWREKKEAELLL
# Target: T1, AP2-HC D1
# Experiment: gcPBM; about 25 ug protein; PBS, 1% milk, 0.2 mg/ml BSA, salmon testes DNA, 0.03% Triton X-100
# Details: tags: N-terminal GST (pGEX-4T-1), kept; label: surface-attached array probe
row,Binder,binding signal
1,CACACA_site8256 (dsDNA) DNA 1: AAATAAAGCACACCGACACACACATATATATATATA DNA 2: TATATATATATATGTGTGTGTCGGTGTGCTTTATTT,"10.4 ln median PBM intensity, better of two orientations"
2,CACACA_site7641 (dsDNA) DNA 1: TACATACACAGACACACACACATATAAATATAAATA DNA 2: TATTTATATTTATATGTGTGTGTGTCTGTGTATGTA,"10.4 ln median PBM intensity, better of two orientations"
3,CACACA_site65 (dsDNA) DNA 1: CATGTAATATTAAACACACACTCATATAACACAATA DNA 2: TATTGTGTTATATGAGTGTGTGTTTAATATTACATG,"10.2 ln median PBM intensity, better of two orientations"
4,CACACA_site9254 (dsDNA) DNA 1: TTAATAAATATCAATACACACACACTAATGTGAATA DNA 2: TATTCACATTAGTGTGTGTGTATTGATATTTATTAA,"10.1 ln median PBM intensity, better of two orientations"
5,CACACA_site270 (dsDNA) DNA 1: AATACTTATTATGAAACACACACCAAAACTACATAA DNA 2: TTATGTAGTTTTGGTGTGTGTTTCATAATAAGTATT,"10.7 ln median PBM intensity, better of two orientations"
6,CACACA_site1431 (dsDNA) DNA 1: AAAAAAAAAAAAAATACACACAAATAATAAAAATAA DNA 2: TTATTTTTATTATTTGTGTGTATTTTTTTTTTTTTT,"10.1 ln median PBM intensity, better of two orientations"
7,CACACA_site8866 (dsDNA) DNA 1: CCGCCATTGTACCATCCACACACATATATATATGTA DNA 2: TACATATATATATGTGTGTGGATGGTACAATGGCGG,"10.3 ln median PBM intensity, better of two orientations"
8,CACACA_site6334 (dsDNA) DNA 1: AAAAAAAAAAGACACACACACAAATACAAATACATA DNA 2: TATGTATTTGTATTTGTGTGTGTGTCTTTTTTTTTT,"10.9 ln median PBM intensity, better of two orientations"
9,CACACA_site6756 (dsDNA) DNA 1: ACAAATAAAAAAATTACACACATATAAAATATAGAT DNA 2: ATCTATATTTTATATGTGTGTAATTTTTTTATTTGT,"10.1 ln median PBM intensity, better of two orientations"
10,CACACA_site6324 (dsDNA) DNA 1: CATAAATCAGCCATAACACACATACCTATATACATA DNA 2: TATGTATATAGGTATGTGTGTTATGGCTGATTTATG,"10.3 ln median PBM intensity, better of two orientations"
11,CACACA_site4891 (dsDNA) DNA 1: TAATAAATAGGACACACACACATATATATATATTAT DNA 2: ATAATATATATATATGTGTGTGTGTCCTATTTATTA,"10.5 ln median PBM intensity, better of two orientations"
12,CACACA_site5932 (dsDNA) DNA 1: GCATTGTCCATGCGCACACACTACTAGAATAATATG DNA 2: CATATTATTCTAGTAGTGTGTGCGCATGGACAATGC,"10.2 ln median PBM intensity, better of two orientations"
13,CACACA_site3184 (dsDNA) DNA 1: TACTAAAACCCATACACACACATATATATAGTACCA DNA 2: TGGTACTATATATATGTGTGTGTATGGGTTTTAGTA,"10.2 ln median PBM intensity, better of two orientations"
14,CACACA_site7688 (dsDNA) DNA 1: AATATAAATAAAAACACACACAATGGTACCTATATA DNA 2: TATATAGGTACCATTGTGTGTGTTTTTATTTATATT,"10.3 ln median PBM intensity, better of two orientations"
15,CACACA_site2432 (dsDNA) DNA 1: CAAACCCACCAACACACACACACAAAAATGATTAAA DNA 2: TTTAATCATTTTTGTGTGTGTGTGTTGGTGGGTTTG,"10.5 ln median PBM intensity, better of two orientations"
16,CACACA_site1542 (dsDNA) DNA 1: AATGTACAAATACGTACACACATATATATATATATA DNA 2: TATATATATATATATGTGTGTACGTATTTGTACATT,"10.2 ln median PBM intensity, better of two orientations"
17,CACACA_site3383 (dsDNA) DNA 1: ATATTAAACAAACACACACACATATATATATATATA DNA 2: TATATATATATATATGTGTGTGTGTTTGTTTAATAT,"10.2 ln median PBM intensity, better of two orientations"
18,CACACA_site9055 (dsDNA) DNA 1: ATATATATATATATTGTACACACATTTATGCATATA DNA 2: TATATGCATAAATGTGTGTACAATATATATATATAT,"10.3 ln median PBM intensity, better of two orientations"
19,CACACA_site7630 (dsDNA) DNA 1: ATTATACACGCGCGCACACACAACAAAAAAAAAAAA DNA 2: TTTTTTTTTTTTGTTGTGTGTGCGCGCGTGTATAAT,"10.3 ln median PBM intensity, better of two orientations"
20,CACACA_site4209 (dsDNA) DNA 1: TATATATATGGACACACACACACCAAAGCGTAGCGC DNA 2: GCGCTACGCTTTGGTGTGTGTGTGTCCATATATATA,"10.3 ln median PBM intensity, better of two orientations"
21,CACACA_site8083 (dsDNA) DNA 1: AAAAAAAAAAAAAAAACACACACATGCACATCATAT DNA 2: ATATGATGTGCATGTGTGTGTTTTTTTTTTTTTTTT,"10.4 ln median PBM intensity, better of two orientations"
22,CACACA_site6959 (dsDNA) DNA 1: GTTTCCTTAATATTCACACACATATCTATAATATAT DNA 2: ATATATTATAGATATGTGTGTGAATATTAAGGAAAC,"10.2 ln median PBM intensity, better of two orientations"

row,Binder,binding signal
1,CACACA_site9385 (dsDNA) DNA 1: AATATATGTTTAATTTCACACACAAATATACATTTT DNA 2: AAAATGTATATTTGTGTGTGAAATTAAACATATATT,"10.2 ln median PBM intensity, better of two orientations"
2,CACACA_site1177 (dsDNA) DNA 1: TTAATTTATAAAAACACACACAGGTAAAAAGGTGCA DNA 2: TGCACCTTTTTACCTGTGTGTGTTTTTATAAATTAA,"10.3 ln median PBM intensity, better of two orientations"
3,CACACA_site1725 (dsDNA) DNA 1: CATATATACGCATACACACACACACCCACACCCACA DNA 2: TGTGGGTGTGGGTGTGTGTGTGTATGCGTATATATG,"10.7 ln median PBM intensity, better of two orientations"
4,CACACA_site8543 (dsDNA) DNA 1: ATTAATATATAACGTGCACACACACCGTTACGTATG DNA 2: CATACGTAACGGTGTGTGTGCACGTTATATATTAAT,"10.3 ln median PBM intensity, better of two orientations"
5,CACACA_site336 (dsDNA) DNA 1: GGAGCACCCAGACACACACACACATATATATATATA DNA 2: TATATATATATATGTGTGTGTGTGTCTGGGTGCTCC,"10.6 ln median PBM intensity, better of two orientations"
6,CACACA_site498 (dsDNA) DNA 1: TACACCCACCAACACACACACACACCCAAAAAAAAA DNA 2: TTTTTTTTTGGGTGTGTGTGTGTGTTGGTGGGTGTA,"10.5 ln median PBM intensity, better of two orientations"
7,CACACA_site4006 (dsDNA) DNA 1: ATAAGGAAGGGATGCACACAAAAGGGTACATAAGAA DNA 2: TTCTTATGTACCCTTTTGTGTGCATCCCTTCCTTAT,"10.5 ln median PBM intensity, better of two orientations"
8,CACACA_site8823 (dsDNA) DNA 1: TAATTATGCCAACACACACACACACCCAACTAAAAA DNA 2: TTTTTAGTTGGGTGTGTGTGTGTGTTGGCATAATTA,"10.8 ln median PBM intensity, better of two orientations"
9,CACACA_site1963 (dsDNA) DNA 1: AACTTGTATATATACACACACACACTGTCTTTTTTT DNA 2: AAAAAAAGACAGTGTGTGTGTGTATATATACAAGTT,"10.5 ln median PBM intensity, better of two orientations"
10,CACACA_site6202 (dsDNA) DNA 1: CTCATCCTTACATACACACACATATATTTATTTATA DNA 2: TATAAATAAATATATGTGTGTGTATGTAAGGATGAG,"10.2 ln median PBM intensity, better of two orientations"
11,CACACA_site7791 (dsDNA) DNA 1: AAAATTAACCGTAACACACACACATATAAATATGTA DNA 2: TACATATTTATATGTGTGTGTGTTACGGTTAATTTT,"10.4 ln median PBM intensity, better of two orientations"
12,CACACA_site1745 (dsDNA) DNA 1: CACATACAGACATACACACATACACATATACGCATA DNA 2: TATGCGTATATGTGTATGTGTGTATGTCTGTATGTG,"10.2 ln median PBM intensity, better of two orientations"
13,CACACA_site8795 (dsDNA) DNA 1: CTTATATATTGCCCTTCACACACACCCATATATATA DNA 2: TATATATATGGGTGTGTGTGAAGGGCAATATATAAG,"10.6 ln median PBM intensity, better of two orientations"
14,CACACA_site803 (dsDNA) DNA 1: AAAAAAAACAAATACACACGCACACCGAAAAAAAAA DNA 2: TTTTTTTTTCGGTGTGCGTGTGTATTTGTTTTTTTT,"10.9 ln median PBM intensity, better of two orientations"
15,CACACA_site7028 (dsDNA) DNA 1: CATACATACATACATACACACATATATAAATATATG DNA 2: CATATATTTATATATGTGTGTATGTATGTATGTATG,"10.2 ln median PBM intensity, better of two orientations"
16,CACACA_site5095 (dsDNA) DNA 1: ACATCATTTTTATGTACACACACATATACGTTGAAT DNA 2: ATTCAACGTATATGTGTGTGTACATAAAAATGATGT,"10.2 ln median PBM intensity, better of two orientations"
17,CACACA_site269 (dsDNA) DNA 1: AAATAATTCAAAAAAACACACAAATTACAAAATAAA DNA 2: TTTATTTTGTAATTTGTGTGTTTTTTTGAATTATTT,"10.2 ln median PBM intensity, better of two orientations"
18,CACACA_site7567 (dsDNA) DNA 1: TGCAACAAAATAAACACACACACACTAACACAAAAA DNA 2: TTTTTGTGTTAGTGTGTGTGTGTTTATTTTGTTGCA,"10.5 ln median PBM intensity, better of two orientations"
19,CACACA_site4573 (dsDNA) DNA 1: TATGCAAGGAACCACACACACACACCGAAATGTATA DNA 2: TATACATTTCGGTGTGTGTGTGTGGTTCCTTGCATA,"10.6 ln median PBM intensity, better of two orientations"
20,CACACA_site4316 (dsDNA) DNA 1: TGAATAAATCAAAGCACACATACACAGACATATATA DNA 2: TATATATGTCTGTGTATGTGTGCTTTGATTTATTCA,"10.4 ln median PBM intensity, better of two orientations"
21,CACACA_site8848 (dsDNA) DNA 1: ATATAAATTTTTTATGAACACACAAATACAGACACT DNA 2: AGTGTCTGTATTTGTGTGTTCATAAAAAATTTATAT,"10.3 ln median PBM intensity, better of two orientations"
22,CACACA_site8328 (dsDNA) DNA 1: TTGGGTCAAACATAAACACACACAAAAAGAAAAAAT DNA 2: ATTTTTTCTTTTTGTGTGTGTTTATGTTTGACCCAA,"10.7 ln median PBM intensity, better of two orientations"
